Biological target: HIV-1JR-FLΔCT Env trimer (HIV-1 JR-FL) (UniProt Q75760)
Experiment: flow cytometry on cells

Question: For “C34-Ig, fusion protein of an immunoglobulin Fc and the gp41 HR2 peptide (Fc fusion)”, which percent of Env-expressing cells binding C34-Ig is on record?
Answer: 37%
